Reference: patent US20080199481A1 (AstraZeneca / MedImmune, published 2008)
Several values for one entry are separate records, joined by “and”; a condition that tells them apart may be missing. Equal values may be shown once.

B1: Antibody 1 (germlined IgG1) (antibody, V domains shown)
VH: EVQLLESGGGLVQPGGSLRLSCAASGFTFGNSWMSWVRQAPGKGLEWVSAISGSGGSTYYADSVKGRFTISRDNSKNTLYLQMNSLRAEDTAVYYCTRDLPGIAVAGYWGQGTLVTVSS
VL: DTQMTQSPSTLSASVGDRVTITCRASEGIYHWLAWYQQKPGKAPKLLIYKASSLASGVPSRFSGSGSGTEFTLTISSLQPDDFATYYCQQYSNYPLTFGGGTKLEIKR
notes: also called germlined Antibody 1 IgG1; antibody 1 (IgG1)
B2: Human CXCL13 (MEL cell derived), unglycosylated (ligand)
chain: VLEVYYTSLRCRCVQESSVFIPRRFIDRIQILPRGNGCPRKEIIVWKKNKSIVCVDPQAEWIQRMMEVLRKRSSSTLPVPVF
notes: also called hCXCL13; Unglycosylated hCXCL13
B3: Cynomolgus CXCL13 (MEL cell derived) (ligand)
chain: VLEVYYTHLRCRCVQESSVFIPRRFIDRIQISPRGNGCPRKEIIVWKKNKSVVCVDPQAEWIQRIMEMLRKKSSSTPPVPVF
modifications: glycosylated (site not stated)
notes: also called Cyno CXCL13; glycosylated cyno CXCL13

How the values were obtained:
[1] = biological target: B2; test: SPR (BIAcore 2000), IgG captured on Protein G', human CXCL13 0.25-20 nM flowed; 1:1 Langmuir with mass transport limitation
From the text: (§1) Standard amine linkage chemistry was employed to create blank and 265 RU surfaces of Protein G′ (Sigma P4689) on Flow cells (Fc) 1 and 2, respectively, of a normalized CM5 chip (BIAcore, BR-1000-14). This Fc 2 Protein G′ surface was used to capture 240-385 RUs Antibody 1 (germlined IgG₁).

[2] = biological target: B3; test: SPR (BIAcore 2000), IgG amine-coupled to a CM3 chip, cyno CXCL13 0.10-0.60 nM flowed; 1:1 Langmuir (n=1, initial data)
Method: (§2) Antibodies were diluted to 1.0 μg mL-1 in 10 mM acetate buffer pH 4.5. Standard amine linkage chemistry (using amine coupling kit BR-1000-50) was employed to create blank (Fc 1) and 500 RU surfaces of IgG on a CM3 chip (BIAcore, BR-1005-41, lot: 1160100 expiry April '07). The wash solution employed was Glycine pH 2.0.
(§3) Flow of human and cynomolgus CXCL13 over chip surfaces. A dilution series of each CXCL13 (0.10, 0.20, 0.30, 0.40, 0.50 and 0.60 nM) was constructed in HBS-EP buffer and flowed at 30 μL min-1 over all flow cells (association time of 4 minutes, dissociation for 10 minutes and regeneration with two 20 μL pulses of 10 mM Glycine pH 2.0). Blank injections were made with the same buffer. All solutions were prepared and stored in polypropylene.

[3] = biological target: T1, Glycosylated human CXCL13 (MEL cell derived) (human, UniProt O43927 23-104, glycosylated (site not stated)); test: cell-based or functional assay
T1 sequence: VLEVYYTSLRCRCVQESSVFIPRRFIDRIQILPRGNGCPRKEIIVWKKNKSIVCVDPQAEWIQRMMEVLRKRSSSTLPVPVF

[4] = biological target: B3; test: cell-based or functional assay
[5] = biological target: B2; test: cell-based or functional assay
[6] = biological target: B2; test: SPR (BIAcore 2000), IgG captured on Protein G', human CXCL13 flowed; average of the 3 experiments of Table 10a
From the text: as §1

[7] = biological target: B2; test: SPR (BIAcore 2000), IgG amine-coupled to a CM3 chip, human CXCL13 0.10-0.60 nM flowed; 1:1 Langmuir (n=1, initial data)
Method: as §2, §3

[8] = biological target: B2; test: cell-based or functional assay; remark: listed apart in the source
[9] = biological target: B3; test: SPR (BIAcore 2000), IgG captured on Protein G', cyno CXCL13 0.125-40 nM flowed; 1:1 Langmuir with mass transport limitation
From the text: as §1

[10] = biological target: B2; test: cell-based or functional assay; remark: listed apart in the source
[11] = biological target: B3; test: SPR (BIAcore 2000), IgG captured on Protein G', cyno CXCL13 flowed; average of the 2 experiments of Table 11
From the text: as §1

CXCL3 (GROγ) = biological target: T2, CXCL3 (GROγ) (UniProt P19876 35-107); test: CXCL13 FLISA competition assay (FMAT, biotinylated human CXCL13 on streptavidin beads)
T2 construct: also called CXCL3 (R&D Systems)
T2 sequence (looked up): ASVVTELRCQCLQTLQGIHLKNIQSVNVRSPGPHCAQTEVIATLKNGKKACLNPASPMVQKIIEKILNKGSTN
Method: (§4) Samples and reagents were diluted in Assay Buffer (Phosphate Buffered Saline with 0.1% BSA, 0.1% Tween-20 and 0.01% sodium azide). 0.25 nM biotinylated CXCL13 (Almac) was pre-incubated with 0.004% w/v 6-8 μm streptavidin coated polystyrene particles (Spherotec SVP-60-5) for 1 hour at room temperature. The beads were then centrifuged at 3000 rpm for 5 minutes, the supernatant discarded and the pellet resuspended in the original volume of assay buffer to give a 0.004% w/v bead/biotinylated humanCXCL13 mix. 10 μL competitor, assay buffer (total binding control) or excess humanCXCL13 (Non specific binding (NSB) control) was added to a 384 well clear-bottomed non-binding surface assay plate (Costar 3655). 10 μL 5 nM Goat anti-human (H+L) Alexa Fluor®-647 (Invitrogen A21445), 10 μL 0.31 nM Antibody 1 (germlined IgG) and 20 μL Bead/biotinylated CXCL13 mix were then added and the plates incubated for 4 hours at room temperature. FL1 signal was read on the Applied Biosystems Cellular Detection System 8200. Data was analysed using the Wang Goldman algorithm with gating of size 3-12, colour ratio <0.4, minimum count 20.
(§5) Specificity of the germlined Antibody 1 IgG₁ for human CXCL13 (MEL cell derived) over other members of the CXC family of chemokines was determined using the CXCL13 FLISA (Fluorescence linked immunosorbent assay). In this assay the chemokines CXCL3 (R&D Systems), CXCL5 (R&D Systems), CXCL6 (R&D Systems), CXCL8 (R&D Systems), CXCL10 (R&D Systems) and CXCL12 (Peprotech) were tested for competition with biotinylated human CXCL13 (Almac) immobilised on a streptavidin bead for binding to germlined Antibody 1 IgG₁. The biotinylated human CXCL13 antibody-binding interaction was detected with a fluorescently tagged anti-human IgG antibody using Fluorescence Microvolume assay Technology (refer to “Assay Materials and Methods” for details). Standard chemokine names (Zlotnik and Yoshie, 2000) are given together with their most commonly used synonym.

CXCL12 (SDF-1α) = biological target: T3, CXCL12 (SDF-1α) (UniProt P48061-2 22-89); test: as above
T3 construct: also called CXCL12 (Peprotech)
Method: as §4, §5

CXCL8 (IL-8) = biological target: T4, CXCL8 (IL-8) (UniProt P10145 28-99); test: as above
T4 construct: also called CXCL8 (R&D Systems)
T4 sequence (looked up): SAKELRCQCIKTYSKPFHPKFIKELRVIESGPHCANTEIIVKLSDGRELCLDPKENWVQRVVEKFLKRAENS
Method: as §4, §5

CXCL5 (ENA-78) = biological target: T5, CXCL5 (ENA-78) (UniProt P42830 37-114, limits assumed); test: as above
T5 construct: also called CXCL5 (R&D Systems)
T5 sequence (looked up): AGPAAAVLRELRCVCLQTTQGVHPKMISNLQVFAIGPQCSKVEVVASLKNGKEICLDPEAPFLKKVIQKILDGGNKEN
Method: as §4, §5

CXCL10 (IP10) = biological target: T6, CXCL10 (IP10) (UniProt P02778 22-98); test: as above
T6 construct: also called CXCL10 (R&D Systems)
T6 sequence (looked up): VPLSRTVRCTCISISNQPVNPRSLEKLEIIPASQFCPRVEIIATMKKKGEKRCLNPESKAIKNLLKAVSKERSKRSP
Method: as §4, §5

CXCL6 (GCP-2) = biological target: T7, CXCL6 (GCP-2) (UniProt P80162 38-114, limits assumed); test: as above
T7 construct: also called CXCL6 (R&D Systems)
T7 sequence (looked up): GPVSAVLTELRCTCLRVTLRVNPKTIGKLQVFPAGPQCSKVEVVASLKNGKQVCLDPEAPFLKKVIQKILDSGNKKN
Method: as §4, §5

[12] = biological target: B3; test: cell-based or functional assay
[13] = biological target: B2; test: cell-based or functional assay; remark: listed apart in the source
[14] = biological target: B1; test: CXCL13 FLISA competition: soluble chemokine titrated against 0.31 nM Antibody 1 germlined IgG1 binding to bead-bound biotinylated human CXCL13 (n = 1)
Method: as §4, with “10 μL 5 nM Goat anti-human (H+L) Alexa Fluor®-647 (Invitrogen A21445), 10 μL 0.31 nM Antibody 1 (germlined IgG) and 20 μL Bead/biotinylated CXCL13 mix were then added and the plates incubated for 4 hours at room temperature.” left out
(§6) Specificity of the germlined Antibody 1 IgG₁ for human CXCL13 (MEL cell derived) over other members of the CXC family of chemokines was determined using the CXCL13 FLISA (Fluorescence linked immunosorbent assay). […] The biotinylated human CXCL13 antibody-binding interaction was detected with a fluorescently tagged anti-human IgG antibody using Fluorescence Microvolume assay Technology (refer to “Assay Materials and Methods” for details). […]

[15] = biological target: B1; test: CXCL13 FLISA competition: soluble chemokine titrated against Antibody 1 germlined IgG1 binding to bead-bound biotinylated human CXCL13 (n = 1)
Method: as §4, with “10 μL 5 nM Goat anti-human (H+L) Alexa Fluor®-647 (Invitrogen A21445), 10 μL 0.31 nM Antibody 1 (germlined IgG) and 20 μL Bead/biotinylated CXCL13 mix were then added and the plates incubated for 4 hours at room temperature.” left out
as §6

[16] = biological target: T8, Biotinylated human CXCL13 (Almac) (human, UniProt O43927 23-109, biotin at the most C terminal lysine residue); test: SPR (BIAcore 2000), 28 RU biotinylated human CXCL13 captured on streptavidin, Fab 0.065-2.105 nM flowed
T8 construct: also called human CXCL13 biotinylated near the C-terminus (Almac custom synthesis)
T8 sequence: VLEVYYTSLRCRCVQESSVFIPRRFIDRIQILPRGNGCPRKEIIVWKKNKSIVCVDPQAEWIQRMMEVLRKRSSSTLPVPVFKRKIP
From the text: Standard amine linkage chemistry was employed to create blank (Fc 1) and 228 and 303 RU surfaces of Streptavidin (Perbio/Pierce 21125) on Flow cells (Fc) 2 and 3, respectively, of a normalized CM5 chip (BIAcore, BR-1000-14). This Fc 3 streptavidin surface was used to capture 28 RUs human CXCL13 biotinylated near the C-terminus (Almac custom synthesis).

With B1 the Kd [1] was 0.0322 nM and 0.0504 nM and 0.0417 nM, the koff [1] was 0.000684 s⁻¹ and 0.000715 s⁻¹ and 0.000736 s⁻¹ and the kon [1] was 2.13e+07 M⁻¹ s⁻¹ and 1.42e+07 M⁻¹ s⁻¹ and 1.76e+07 M⁻¹ s⁻¹. It also gave a Kd [2] of 0.285 nM, a koff [2] of 0.00104 s⁻¹ and a kon [2] of 3.63e+06 M⁻¹ s⁻¹. The “IC50, B300.19 hCXCR5 chemotaxis assay (ED80 concentration of CXCL13)” value (“IC50, B300.19 hCXCR5 chemotaxis assay” for short) [3] was 3.94 nM, the “IC50, B300.19 hCXCR5 chemotaxis assay” value [4] was 4.53 nM and the “IC50, B300.19 hCXCR5 chemotaxis assay” value [5] was 6.22 nM. It also gave a Kd [6] of 0.0414 nM, a koff [6] of 0.000712 s⁻¹ and a kon [6] of 1.77e+07 M⁻¹ s⁻¹. It also gave a Kd [7] of 0.259 nM, a koff [7] of 0.000524 s⁻¹ and a kon [7] of 2.02e+06 M⁻¹ s⁻¹. For the same binder, the “IC50, human tonsillar B cell chemotaxis assay (100 nM human non-glycosylated CXCL13, ED80; n=4)” value [8] was 9.59 nM, the Kd [9] was 0.033 nM and 0.0291 nM and the koff [9] was 0.00065 s⁻¹ and 0.000599 s⁻¹. For the same binder, the kon [9] was 1.97e+07 M⁻¹ s⁻¹ and 2.05e+07 M⁻¹ s⁻¹, the “IC50, CXCL13 mediated CHO Gqi5 hCXCR5 c4.4 Ca2+ release assay (FLIPR)” value [10] was 10.4 nM and the Kd [11] was 0.0311 nM. The koff [11] was 0.000625 s⁻¹, the kon [11] was 2.01e+07 M⁻¹ s⁻¹ and the binding result (CXCL3 (GROγ)) was “no binding (tested: 1 µM)”. B1: no binding (tested: 1 µM) (CXCL12 (SDF-1α)); no binding (tested: 1 µM) (CXCL8 (IL-8)); no binding (tested: 1 µM) (CXCL5 (ENA-78)). The binding result (CXCL10 (IP10)) was “no binding (tested: 1 µM)”, the binding result (CXCL6 (GCP-2)) was “no binding (tested: 1 µM)” and the “IC50, LANCE CXCL13 cAMP assay (CHO Gqi5 hCXCR5 cells)” value [12] was 0.3 nM. The “IC50, LANCE CXCL13 cAMP assay (CHO Gqi5 hCXCR5 cells)” value [13] was 1.6 nM.

An IC50 [14] of 0.2 nM was found for B2 in this work.

An IC50 [15] of 0.8 nM was found for B3 in this work.

B4: Antibody 1 (germlined IgG1) Fab (Fab, V domains shown)
VH: EVQLLESGGGLVQPGGSLRLSCAASGFTFGNSWMSWVRQAPGKGLEWVSAISGSGGSTYYADSVKGRFTISRDNSKNTLYLQMNSLRAEDTAVYYCTRDLPGIAVAGYWGQGTLVTVSS
VL: DTQMTQSPSTLSASVGDRVTITCRASEGIYHWLAWYQQKPGKAPKLLIYKASSLASGVPSRFSGSGSGTEFTLTISSLQPDDFATYYCQQYSNYPLTFGGGTKLEIKR
notes: also called Size Exclusion Chromatography monomerized Fab fragments of Antibody 1
A Kd [16] of 0.185 nM, a koff [16] of 0.00166 s⁻¹ and a kon [16] of 8.98e+06 M⁻¹ s⁻¹ were found for B4 in this work.
